In patent US20050079613A1, “Downregulation of cell surface glycoproteins by a family of human ubiquitin ligases” (Oregon Health & Science University, priority 2002, published 2005):

What was measured:
ubiquitin = assay: In vitro ubiquitination assay with GST-fused RING-CH (PHD) domains, E1, E2 panel, anti-ubiquitin immunoblot; format: biochemical; settings: E2 = UbCH2
Method: Ubiquitination assay. UbCH2 and UbCH3 were obtained from Boston Biochem. (His)6-UbCH5a and GST fusion proteins were expressed in BL21-DE3 cells (Stratagene) and BL21 cells (Amersham), respectively, and purified as previously described (Boutell, C., S. Sadis and R. D. Everett, J. Virol. 76:841-850, 2002; Tiwari, S. and A. M. Weissman, J. Biol. Chem. 276:16193-16200, 2001). Purified E3 proteins were stored at 4° C., and E2 proteins were stored at −80° C. In vitro reaction mixtures (20 μl total) included: 50 nM rabbit E1 (Boston Biochem), 28 μM Ubiquitin, 5 mM ATP, 50 mM Tris-HCl pH 7.5, 50 mM NaCl, and 2 mM DTT. E2 enzymes were used at concentrations varying from 0.1 to 2.3 μM, and E3 concentrations ranged from 3 to 30 μM. After 90 minutes of incubation at 30° C., reactions were stopped by boiling in SDS sample buffer. Samples were electrophoresed through 12% polyacrylamide SDS gels and blotted using anti-ubiquitin mouse antibody, P4D1 (Santa Cruz Biotech).
In vitro reaction mixtures (20 μl total) included: 50 nM rabbit E1 (Boston Biochem), 28 μM Ubiquitin, 10 mM ATP, 50 mM Tris-HCl pH 7.5, 50 mM NaCl, and 2 mM DTT. E2 enzymes were used at concentrations varying from 0.7 to 2.3 μM, and E3 concentrations ranged from 3 to 25 μM. After 90 minutes of incubation at 30° C., reactions were stopped by addition of 4×reducing sample buffer. Samples were electrophoresed through 12% SDS gels and blotted using anti-ubiquitin mouse antibody (Santa Cruz Biotech).
To examine if the RING-CH domains of MARCH-I and MARCH-II would act as ubiquitin ligases in vitro, DNA fragments encoding the amino-terminal RING-CH-domain of both proteins were fused to Glutathione-S-transferase. The resulting constructs were sequence confirmed and expression of GST-MARCH protein verified by immunoblot. The GST-fusion protein was expressed and purified from E. coli cultures using Glutathione-columns. The ICP0-RING-domain was also purified, in parallel with the MARCH-I and MARCH-II constructs. A panel of E2 enzymes was either purchased from commercial sources or purified either by nickel-chelate chromatography or on glutathione columns. All E2-enzymes formed mercapto-ethanol-sensisitve complexes with ubiquitin thus showing ubiquitin conjugating activity. Purified ubiquitin and E1 was obtained from commercial sources.
To examine if the RING-CH domains of MARCH proteins act as ubiquitin ligases in vitro, a DNA fragment encoding the amino-terminal RING-CH-domains of MARCH-I, II, IV and VIII were fused to Glutathione-S-transferase (GST) for bacterial expression. The GST-fusion proteins were purified from E. coli cultures using Glutathione-sepharose-columns. Approximately thirty E2 proteins are found in the human genome compared to only one E1 enzyme (Pickart, 2001, supra). […] The specificity and selectivity of E3s with respect to E2s, however, is not well characterized. To cover a spectrum of E2s, a panel of E2 enzymes (Mansouri et al., 2003, supra) was acquired. The various E2 enzymes were incubated with or without the RING-CH-GST fusions in the presence of ubiquitin, ATP, E1. The formation of multiubiquitin-adducts was examined by immunoblotting with antibodies against ubiquitin.

HLA-A2.1 = assay: Pulse-chase of HLA-A2.1 maturation and turnover in transfected HeLa cells; format: cell-based, human; settings: HeLa cells co-transfected with HLA-A2.1 and MARCH-IV, chase up to 8 hours
Method: Metabolic labeling, immunoprecipitation and Western blotting. HeLa cells were grown to 80% confluency in 100 mm tissue culture dishes and transfected as above. Cells were incubated in serum-free and methionine-free medium for 30 minutes, and metabolically labeled with ^35S-cysteine/^35S-methionine (250 μCi, Amersham) for the indicated time. After labeling, cells were washed twice with PBS and either lysed immediately in PBS containing 1% Triton X-100 and protease inhibitors (Roche, Indianapolis, Ind.), or the label was chased with excess (2 mM) unlabeled cysteine and methionine in the presence or absence of specific inhibitors for the indicated time. The cell lysates were precleared with protein A/G agarose beads and incubated with 3 μg of antibody for one hour and followed by two hours incubation with protein A/G beads. Immunoprecipated proteins were washed five times with 0.1% Triton X-100 in PBS. All samples were boiled in SDS buffer and analyzed by SDS-PAGE gel electrophoresis. Where indicated, samples were treated with Endoglycosidase H (Roche) according to manufacturer's instructions. Briefly, samples were initially denatured at 100° C. in 40 μl of 0.3% SDS, 150 mM 2-mercaptoethanol, 50 mM sodium acetate, pH 5.5 and incubated with 4 milli-Units of Endo H overnight at 37° C. All samples were boiled in SDS buffer and analyzed by SDS-PAGE gel electrophoresis. […]

B1: MARCH-IV: human membrane-associated RING-CH ubiquitin ligase, SEQ ID NOS:45 and 57; construct used lacks the first 63 amino-acids (protein)
chain: WYCYGLCAPAPQMLRHQGLLKCRCRMLFNDLKVFLLRRPPQAPLPMHGDPQPPGLAANNTLPALGAGGWAGWRGPREVVGREPPPVPPPPPLPPSSVEDDWGGPATEPPASLLSSASSDDFCKEKTEDRYSLGSSLDSGMRTPLCRICFQGPEQGELLSPCRCDGSVKCTHQPCLIKWISERGCWSCELCYYKYHVIAISTKNPLQWQAISLTVIEKVQVAAAILGSLFLIASISWLIWSTFSPSARWQRQDLLFQICYGMYGFMDVVCIGLIIHEGPSVYRIFKRWQAVNQQWKVLNYDKTKDLEDQKAGGRTNPRTSSSTQANIPSSEEETAGTPAPEQGPAQAAGHPSGPLSHHHCAYTILHILSHLRPHEQRSPPGSSRELVMRVTTV
- ubiquitin ligase activity with UbCH2 (ubiquitin): mostly active
- fate of HLA-A2.1 in pulse-chase (HLA-A2.1): exits the ER but is degraded
